Source: paper PMC8087782, “Developing Nanodisc-ID for label-free characterizations of membrane proteins” (Communications Biology, 2021)

Legend:
[1] = target: vesicle (v-) SNAREs reconstituted in APEX2-MSP1D1 nanodiscs (UniProt P63045); test: proximity labelling; nanodisc-ID: liposomes harboring t-SNAREs incubated with APEX2-MSP1D1 nanodiscs bearing v-SNAREs, with syt1-Ca2+; PL efficiency of t-SNAREs against v-SNARE nanodisc concentration; PBS, room temp; one-site fit; apparent
[2] = target: vesicle (v-) SNAREs reconstituted in APEX2-MSP1D1 nanodiscs (UniProt P63045); test: proximity labelling; nanodisc-ID: liposomes harboring t-SNAREs incubated with APEX2-MSP1D1 nanodiscs bearing v-SNAREs, without syt1-Ca2+; PL efficiency of t-SNAREs against v-SNARE nanodisc concentration; PBS, room temp; one-site fit; apparent
[3] = target: vesicle (v-) SNAREs reconstituted in APEX2-MSP1D1 nanodiscs (UniProt P63045); test: as above; remark: listed apart in the source
[4] = target: T1, MalFGK2 (Escherichia coli, UniProt P68187); settings: APEX2-MSP1D1 nanodiscs; MalE and maltose
T1 construct: gene malK
T1 sequence (P68187 whole entry): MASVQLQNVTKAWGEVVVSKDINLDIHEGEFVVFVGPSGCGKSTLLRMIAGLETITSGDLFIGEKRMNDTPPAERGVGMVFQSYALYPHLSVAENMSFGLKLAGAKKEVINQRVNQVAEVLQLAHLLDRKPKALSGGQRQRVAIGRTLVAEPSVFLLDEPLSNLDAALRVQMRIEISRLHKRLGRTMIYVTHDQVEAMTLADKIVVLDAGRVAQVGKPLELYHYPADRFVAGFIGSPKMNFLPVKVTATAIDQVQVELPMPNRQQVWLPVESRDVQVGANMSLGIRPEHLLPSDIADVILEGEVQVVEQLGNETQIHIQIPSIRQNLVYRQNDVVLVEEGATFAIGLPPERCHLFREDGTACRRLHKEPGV
T1 sequence (P02916 whole entry, further chain): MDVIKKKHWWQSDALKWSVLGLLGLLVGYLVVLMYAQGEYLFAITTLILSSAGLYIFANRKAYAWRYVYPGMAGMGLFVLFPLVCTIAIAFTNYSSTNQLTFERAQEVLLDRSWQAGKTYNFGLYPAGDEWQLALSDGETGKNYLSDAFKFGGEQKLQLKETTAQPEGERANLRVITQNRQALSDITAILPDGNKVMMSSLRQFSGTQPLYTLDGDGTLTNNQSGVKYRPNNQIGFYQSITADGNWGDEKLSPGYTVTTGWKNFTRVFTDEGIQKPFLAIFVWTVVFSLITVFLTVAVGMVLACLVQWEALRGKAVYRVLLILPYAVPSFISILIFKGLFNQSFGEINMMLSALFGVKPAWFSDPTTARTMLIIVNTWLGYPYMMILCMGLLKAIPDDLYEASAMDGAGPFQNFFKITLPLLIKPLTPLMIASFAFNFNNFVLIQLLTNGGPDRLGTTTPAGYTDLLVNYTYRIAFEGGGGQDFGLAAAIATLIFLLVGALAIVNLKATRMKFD
T1 sequence (P68183 whole entry, further chain): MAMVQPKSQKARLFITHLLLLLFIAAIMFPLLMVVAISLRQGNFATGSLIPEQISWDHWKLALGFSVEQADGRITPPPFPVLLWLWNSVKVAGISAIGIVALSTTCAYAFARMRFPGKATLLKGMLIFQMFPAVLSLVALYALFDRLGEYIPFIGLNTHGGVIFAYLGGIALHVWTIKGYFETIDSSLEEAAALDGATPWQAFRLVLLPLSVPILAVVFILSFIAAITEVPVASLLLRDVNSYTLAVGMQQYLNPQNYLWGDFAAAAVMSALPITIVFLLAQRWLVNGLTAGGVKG

Kd [1]	Kd [2]	Kd [3]	Compound	photo-colorimetric ATPase assay [4]
0.086 µM	2.8 µM	2.6 µM	target (t-) membrane SNAREs embedded in liposomes (complex)	
			Nc1ncnc2c1ncn2[C@@H]1O[C@H](COP(=O)(O)OP(=O)(O)OP(=O)(O)O)[C@@H](O)[C@H]1O [ATP]	the ATPase activity of MalFGK2 was responding to the addition of MalE and maltose
